Substitutions are numbered along the chain they refer to. Names and notes keep the numbering of the source. “Also recorded” adds a separate entry of the source. Read-outs that look alike come from different tables or passages of the source.
How the values were obtained:
O-Mad2 R133A = target: T1, O-Mad2 R133A (Homo sapiens, UniProt Q13257, R133A); assay: NMR-monitored conversion of O-Mad2 to C-Mad2; type: biochemical; settings: for O-Mad2 to C-Mad2 conversion: substoichiometric 2 µM Cdc20MIM (1:50) to 100 µM O-Mad2 R133A
T1 construct: made in house
T1 sequence (Q13257 whole entry R133A): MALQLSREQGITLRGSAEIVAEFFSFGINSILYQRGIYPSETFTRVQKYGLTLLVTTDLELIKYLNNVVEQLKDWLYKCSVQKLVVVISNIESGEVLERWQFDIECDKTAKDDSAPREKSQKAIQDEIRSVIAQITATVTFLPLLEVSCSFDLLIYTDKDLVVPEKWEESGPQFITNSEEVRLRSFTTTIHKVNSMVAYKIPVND
Procedure: (§1) The following protein concentrations were used in NMR studies: ^1H,^15N HSQC of Mad1^CTD were collected with a 100 µM sample, whereas a 50 µM sample was used for titrations with Cdc20^N and Cdc20^α1. Cdc20^Box1 peptide was added at mM concentrations to minimise dilution during titration. […] Mad1^CTD was concentrated to 3 mM for titrations into Cdc20^N. ^1H,^15N HSQC of Mad2 were collected at 100 µM. All Mad2 NMR samples contain an R133A mutation to prevent Mad2 dimerisation. The C-Mad2 sample additionally contains an L13A mutation which favours the C-Mad2 state. Cdc20^MIM-bound C-Mad2 sample was prepared by adding a 1:2 excess of Cdc20^MIM peptide to an O-Mad2 sample with R133A mutation. To follow the O-to-C conversion of Mad2, the samples were prepared on ice and monitored using BEST ^1H,^15N-TROSY HSQC. The spectra were acquired with 16 scans and a recycle delay of 400 msec, giving an experimental time of 12 min per spectrum.
(§2) Mad1^CTD and Mad2 experiments were performed using an in-house 800 MHz Avance III spectrometer and Cdc20^N experiments were performed using an in-house 700 MHz Avance II + spectrometer, both equipped with triple resonance TCI CryoProbes. To retrieve signals that suffer from exchange broadening, we also utilised the Bruker 950 MHz Avance III spectrometer located at MRC Biomedical NMR Centre (Francis Crick Institute). Mad1^CTD and Mad2 spectra were collected at 298 K. Cdc20^N spectra were collected at 278 K to minimise exchange broadening for the largely disordered Cdc20^N.

pMad1CTD = assay: 1H,15N HSQC / CON NMR titration with pMad1CTD; type: binding, human; settings: peptide titration, 298 K
Procedure: (§3) Uniformly-labelled proteins were expressed in M9 minimal media (6 g/L Na2HPO4, 3 g/L KH2PO4, 0.5 g/L NaCl) supplemented with 1.7 g/L yeast nitrogen base without NH4Cl and amino acids (Sigma Y1251). 1 g/L ^15NH4Cl and 4 g/L unlabelled glucose were supplemented for ^15N labelling. For ^13C/ ^15N double-labelled samples, unlabelled glucose was replaced with 3 g/L ^13C-glucose. Prior to all NMR experiments, proteins were dialysed into 20 mM HEPES, pH 7.0, 100 mM NaCl and 1 mM TCEP.
as §1, §2
(§4) For binding studies, the relative peak intensities were normalised to the C-terminal residue Ala718 of Mad1^CTD or Gly73 of Cdc20^N and expressed as PIbound/PIfree, with PIfree and PIbound being the peak heights of the free and bound forms, respectively. Weighted chemical shift perturbations were calculated using the equation[63]: Δδ = [(ΔδHNWHN)^2 + (ΔδNWN)^2)^2]^1/2 where ΔδHN and ΔδN are the chemical shift perturbations in ^1H and ^15N dimensions respectively. The weight factors were determined from the average variances of chemical shifts in the BMRB database, where WHN = 1 and WN = 0.16.

[1] = target: T2, Mad1CTD (unphosphorylated) (Homo sapiens, UniProt Q9Y6D9); assay: 1H,15N HSQC / CON NMR titration with unphosphorylated Mad1CTD; type: binding; settings: peptide titration, 298 K
T2 construct: the C-terminal domain of Mad1 (residue 597–718); made in house
T2 sequence (Q9Y6D9 597-718): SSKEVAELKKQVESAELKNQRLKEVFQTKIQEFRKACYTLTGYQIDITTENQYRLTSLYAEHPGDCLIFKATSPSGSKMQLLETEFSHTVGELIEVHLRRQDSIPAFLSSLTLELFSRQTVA
Procedure: as §3
The following protein concentrations were used in NMR studies: ^1H,^15N HSQC of Mad1^CTD were collected with a 100 µM sample, whereas a 50 µM sample was used for titrations with Cdc20^N and Cdc20^α1. […] To follow the O-to-C conversion of Mad2, the samples were prepared on ice and monitored using BEST ^1H,^15N-TROSY HSQC. […]
as §4

[2] = target: the molecule itself; assay: SEC + SEC-MALS; Mad1:C-Mad2 tetramer re-purified by SEC after adding excess Mad2; hexamer formed with an excess of Mad2LL; homogeneity confirmed by SEC-MALS
[3] = target: T3, preformed AF488-Bub1^CD1:Mad1^CTD complex (Mad1^CTD unphosphorylated) (UniProt Q9Y6D9 597-718, Aurora Fluor 488 (AF488) on the N-terminal Cys; phosphoserine (pSer459); phosphothreonine (pThr461)); assay: fluorescence polarisation; fluorescence anisotropy; Cdc20^N twofold series (100 μM to 6 nM, mixed 1:1) titrated into preformed AF488-Bub1^CD1:Mad1^CTD (20 nM: 2.1 µM); 25 mM HEPES pH 7.75, 1 mM TCEP, 100 mM NaCl, 0.05% Tween-20; 25 °C; settings: both partners purified
T3 construct: Mad1 C-terminal domain (Mad1^CTD), residues 597-718; as m1; added N-terminal Cys (carries AF488) and Trp; as m7; Bub1 conserved domain 1 (CD1) peptide; also called Mad1^CTD:AF488-Bub1^CD1 complex; source: mixed from purified Mad1^CTD and synthetic peptide (20 nM: 2.1 µM); copies: 2 + 1
T3 sequence 1: T2 sequence (Q9Y6D9 597-718)
T3 sequence 2: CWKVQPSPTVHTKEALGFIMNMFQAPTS

[4] = target: T4, preformed AF488-Bub1^CD1:pMad1^CTD complex (Mad1^CTD phosphorylated at Thr716) (UniProt Q9Y6D9 597-718, phosphothreonine at 716 (pThr716) | Aurora Fluor 488 (AF488) on the N-terminal Cys; phosphoserine (pSer459); phosphothreonine (pThr461)); assay: as above; settings: both partners purified
T4 construct: Mad1 C-terminal domain (Mad1^CTD), residues 597-718; as m2; added N-terminal Cys (carries AF488) and Trp; as m7; Bub1 conserved domain 1 (CD1) peptide; source: mixed from purified pMad1^CTD and synthetic peptide (20 nM: 2.1 µM); copies: 2 + 1
T4 sequence 1: T2 sequence (Q9Y6D9 597-718)
T4 sequence 2: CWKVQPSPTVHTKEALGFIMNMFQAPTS

pMad1CTD (Mad1CTD pT716) = assay: SEC-MALS, Cdc20N with pMad1CTD; type: binding, human; settings: 1:1.2 ratio Mad1CTD dimer to Cdc20N
Procedure: Size-exclusion chromatography coupled with multi-angle static light scattering (SEC-MALS), was performed using an Agilent 1200 series LC system with an online Dawn Helios ii system (Wyatt) equipped with a QELS + module (Wyatt) and an Optilab rEX differential refractive index detector (Wyatt). About 100 μl purified protein at ~3.0 mg/ml was auto-injected onto Superdex 75 or a Superdex 200 Increase 10/300 GL column (GE Healthcare) and run at 0.5 ml/min. The molecular masses were analysed with ASTRA 7.3.0.11 (Wyatt). Data were plotted using Prism 8.4.3 (GraphPad Software, Inc). Purified Cdc20^N and Cdc20^N mutants were incubated with Mad1^CTD wild-type or mutants at a 1:1.2 ratio of Mad1^CTD dimer to Cdc20^N.

Cdc20 = settings: cited from earlier work
Description: NMR spectroscopy was used to obtain structural insights into the Cdc20^N:Mad1^CTD interaction. Unlabelled Cdc20^N was titrated into either ^15N-labelled Mad1^CTD or pMad1^CTD (Fig. 2c, d and Supplementary Fig. 3a, b). […] Similar to Bub1^CD1, the interaction of Cdc20 α1 with Mad1^CTD would largely be driven by hydrophobic interactions (Fig. 4e). This model predicts that Gln3 and Glu7, and Asp9 of Cdc20 α1 interact with Arg617 and Lys619, respectively of the Mad1^CTD RLK motif (Fig. 4d). This is consi ...

In the case of “O-Mad2: open Mad2 with R133A mutation to prevent dimerisation”, the “time for O-Mad2 to C-Mad2 conversion” value (O-Mad2 R133A; absence of Cdc20MIM, peer review response) is reported as 24 h.

With “MAQFAFESDLHSLL [Cdc20 α1, N-terminal α1 helix peptide of Cdc20]” the “binding by NMR chemical shift perturbation” value (pMad1CTD) was “weak interaction; also recorded: weaker”.

In the case of “NLNGFDVEEAKILRLSGKPQNAPEGYQNRLKVLY [Cdc20^MIM]”, the “O-Mad2 to C-Mad2 conversion” value (O-Mad2 R133A) is reported as “cannot be achieved” and the “O-Mad2 to C-Mad2 conversion” value (O-Mad2 R133A; listed as Cdc20MIM) is reported as “The majority of Mad2 remains in an open state; also recorded: nearly all of Mad2 remains in an open state”.

With “PPARWQRKAKEAA [Cdc20 Box1, Box1 motif peptide of Cdc20]” the “binding by NMR chemical shift perturbation” value [1] was “not Mad1^CTD”, the “binding by NMR chemical shift perturbation” value (pMad1CTD) was “binds pMad1^CTD” and the “binding by NMR chemical shift perturbation” value (pMad1CTD; listed as pMad1CTD:Cdc20Box1) was “appeared stronger than that between pMad1CTD:Cdc20α1”.

B1: Mad1^485–718 (Mad1^485), unphosphorylated (domain or fragment, UniProt Q9Y6D9 485-718, looked up)
chain: SSAEQSFLFSREEADTLRLKVEELEGERSRLEEEKRMLEAQLERRALQGDYDQSRTKVLHMSLNPTSVARQRLREDHSQLQAECERLRGLLRAMERGGTVPADLEAAAASLPSSKEVAELKKQVESAELKNQRLKEVFQTKIQEFRKACYTLTGYQIDITTENQYRLTSLYAEHPGDCLIFKATSPSGSKMQLLETEFSHTVGELIEVHLRRQDSIPAFLSSLTLELFSRQTVA
notes: Mad1 residues 485-718; Construct His6-DoubleStrep-TEV-Mad1^485–718; two copies in the tetramer and hexamer with Mad2; also called Mad1 residues 485–718
B1: binds [2].

B2: Mad1^485–718 phosphorylated by Mps1 (pMad1^485) (domain or fragment, UniProt Q9Y6D9 485-718, looked up)
chain: B1 chain
modifications: phosphothreonine at 716 (predominant); lower abundant phosphorylation at Thr500, Ser538, Thr540, Thr550 and Ser551
notes: Mad1 residues 485-718; Predominantly one phosphate per monomer by intact mass; also called phosphorylated Mad1^485; phosphorylated Mad1^485–718
B2: binds [2].

B3: Cdc20^N RRK/SSS mutant (Arg27, Arg30, Lys31 to Ser) (domain or fragment, human, UniProt Q12834 1-73, looked up)
chain: MAQFAFESDLHSLLQLDAPIPNAPPASWQSSAKEAAGPAPSPMRAANRSHSAGRTPGRTPGKSSSKVQTTPSK
notes: human Cdc20, residues 1-73; The purification (with tag cleavage) is told for Cdc20^N; likely the same for the mutant; source: site-directed mutant of the Cdc20^N construct, purified
B3 gave a Kd [3] of 18 µM and a Kd [4] of 23 µM.

B4: Cdc20^N RRK/SSS: Cdc20N with Arg27, Arg30, Lys31 mutated to Ser (protein)
chain: B3 chain
modifications: left off: His6, N-terminal, state not stated | MBP, N-terminal, state not stated
notes: Cdc20N with Arg27, Arg30, Lys31 mutated to Ser
In the case of B4, the “binding by SEC-MALS” value (pMad1CTD (Mad1CTD pT716)) is reported as “abolished its interaction with pMad1^CTD”.

B5: Q648A/R650A: mutation of the conserved QYRL motif within Mad1CTD, ref 33 (protein, UniProt Q9Y6D9 597-718, looked up, variant Q648A R650A)
chain: T2 sequence (Q9Y6D9 597-718) with Q52A, R54A
In the case of B5, the “binding of Cdc20 to Mad1 mutant” value (Cdc20) is given as “impaired binding to Cdc20” and the “binding of Cdc20 to Mad1 mutant” value (Cdc20; listed as Q648A and R650A) is given as “impaired binding of Cdc20^N to Mad1”.

B6: Mad1^CTD RLK/AAA: Mad1CTD RLK/AAA (residues 617-619) mutant, ref 33 (protein, UniProt Q9Y6D9 597-718, looked up, variant R617A L618A K619A)
chain: T2 sequence (Q9Y6D9 597-718) with R21A, L22A, K23A
For B6, the “binding of Cdc20 to Mad1 mutant” value (Cdc20) is listed as “abolished Cdc20 binding” and the “binding of Cdc20 to Mad1 mutant” value (Cdc20; listed as RLK/AAA) is listed as “impaired binding of Cdc20^N to Mad1”.

Source: paper PMC9605988, “Juxtaposition of Bub1 and Cdc20 on phosphorylated Mad1 during catalytic mitotic checkpoint complex assembly” (Nature Communications, 2022)
